Data set [1] concerns the target T1, AtCBF1 (Arabidopsis thaliana, UniProt P93835 1-213). Briefly: EMSA.
In another data set the target is OsDREB1C-m1 (A10_) (Oryza sativa, UniProt Q9LWV3 1-214, del43-43). As to the kind of experiment: EMSA.
Data set [2] concerns the target T2, OsDREB1C (WT) (Oryza sativa, UniProt Q9LWV3 1-214). Briefly: EMSA.
Data set [3] has as its target T1, AtCBF1. Briefly: competition.
Another data set has as its target OsDREB1C-m2 (R12K) (Oryza sativa, UniProt Q9LWV3 1-214, R45K). As to the kind of experiment: competition.
For data set [4], the target named is T2, OsDREB1C (WT). As to the kind of experiment: competition.

T1 sequence (P93835 whole entry): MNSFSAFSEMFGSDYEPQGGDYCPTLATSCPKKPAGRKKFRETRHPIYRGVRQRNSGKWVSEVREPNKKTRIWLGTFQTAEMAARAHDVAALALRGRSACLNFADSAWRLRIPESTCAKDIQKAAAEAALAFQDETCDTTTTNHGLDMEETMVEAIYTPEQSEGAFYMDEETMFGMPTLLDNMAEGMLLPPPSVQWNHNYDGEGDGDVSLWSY

B1: ACCGAC probe, 29 bp (dsDNA)
DNA 1: CAGGAGCTCGATGTAACCGACCTCGTCGA
DNA 2: TCGACGAGGTCGGTTACATCGAGCTCCTG
Regarding B1, the binding result with AtCBF1 [1] is listed as “binds”.

B2: OsNR2 GCCGAC probe, 29 bp (dsDNA)
DNA 1: CAGGAGCTCGATGTAGCCGACCTCGTCGA
DNA 2: TCGACGAGGTCGGCTACATCGAGCTCCTG
With B2, the binding result with OsDREB1C-m1 (A10_) and with OsDREB1C (WT) [2] was “binds” in each case.

B3: ACCGAC competitor, 29 bp (dsDNA)
DNA 1: CAGGAGCTCGATGTAACCGACCTCGTCGA
DNA 2: TCGACGAGGTCGGTTACATCGAGCTCCTG
Take B3: the binding result in the data set with AtCBF1 [3] and with OsDREB1C-m2 (R12K) was “binds” throughout.

B4: OsNR2 GCCGAC competitor, 29 bp (dsDNA)
DNA 1: CAGGAGCTCGATGTAGCCGACCTCGTCGA
DNA 2: TCGACGAGGTCGGCTACATCGAGCTCCTG
For B4, the binding result in the data set with AtCBF1 [3], in the data set with OsDREB1C (WT) [4] and with OsDREB1C-m2 (R12K) was “binds” in each case.

Values taken from article PMC11119335.
